Patent US20090098103A1

Key:
Assay in all cases: cell-based or functional assay
[1] = molecular target: FVIIa variant CB614 D196W/K197L (human) (UniProt P08709)
[2] = molecular target: FVIIa variant CB599 K197M (human) (UniProt P08709)
[3] = molecular target: FVIIa variant CB594 V158D/E296V/M298Q/K337A (human) (UniProt P08709)
[4] = molecular target: FVIIa variant CB565 T239A (human) (UniProt P08709)
[5] = molecular target: FVIIa variant CB697 R290N (human) (UniProt P08709)
[6] = molecular target: FVIIa variant CB554 D196K (human) (UniProt P08709)
[7] = molecular target: FVIIa variant CB597 K197F (human) (UniProt P08709)
[8] = molecular target: FVIIa variant CB559 K197A (human) (UniProt P08709)
[9] = molecular target: FVIIa variant CB615 D196F/K197E (human) (UniProt P08709)
[10] = molecular target: FVIIa variant CB587 D196K/K197E/K199E (human) (UniProt P08709)
[11] = molecular target: FVIIa variant CB602 D196W (human) (UniProt P08709)
[12] = molecular target: FVIIa variant CB670 G237V/K341Q (human) (UniProt P08709)
[13] = molecular target: FVIIa variant CB596 K197V (human) (UniProt P08709)
[14] = molecular target: FVIIa variant CB591 L305V/S314E/L337A/F374Y (human) (UniProt P08709)
[15] = molecular target: FVIIa variant CB567 R290E (human) (UniProt P08709)
[16] = molecular target: FVIIa variant CB560 K197L (human) (UniProt P08709)
[17] = molecular target: FVIIa variant CB568 R290A (human) (UniProt P08709)
[18] = molecular target: FVIIa variant CB593 V158D/E296V/M298Q (human) (UniProt P08709)
[19] = molecular target: FVIIa variant CB696 G237V/M298Q/K341Q (human) (UniProt P08709)
[20] = molecular target: FVIIa variant CB689 K197E/G237V (human) (UniProt P08709)
[21] = molecular target: FVIIa variant CB592 M298Q (human) (UniProt P08709)
[22] = molecular target: FVIIa variant CB586 D196R/K197E/K199E (human) (UniProt P08709)
[23] = molecular target: FVIIa variant CB561 K197Y (human) (UniProt P08709)
[24] = molecular target: FVIIa variant CB637 K197E/K341Q (human) (UniProt P08709)
[25] = molecular target: FVIIa variant CB617 D196V/K197E (human) (UniProt P08709)
[26] = molecular target: FVIIa variant CB609 K341Q (human) (UniProt P08709)
[27] = molecular target: FVIIa variant CB601 D196Y (human) (UniProt P08709)
[28] = molecular target: FVIIa variant CB733 K341N (human) (UniProt P08709)
[29] = molecular target: FVIIa variant CB581 D196R/R290D (human) (UniProt P08709)

- TFPI fold resistance (fold vs wild-type FVIIa) [1]: < 0.3
- TFPI fold resistance (fold vs wild-type FVIIa) [2]: 0.3
- IC50 of TFPI inhibition of FVIIa/TF [3]: 22 nM
- TFPI fold resistance (fold vs wild-type FVIIa) [3]: 0.3
- pIC50 of TFPI inhibition of FVIIa/TF [3]: 7.7
- IC50 of TFPI inhibition of FVIIa/TF [4]: 320 nM
- TFPI fold resistance (fold vs wild-type FVIIa) [4]: 4.5
- pIC50 of TFPI inhibition of FVIIa/TF [4]: 6.5
- TFPI fold resistance (fold vs wild-type FVIIa) [5]: 1.5
- IC50 of TFPI inhibition of FVIIa/TF [6]: 45 nM
- TFPI fold resistance (fold vs wild-type FVIIa) [6]: 0.6
- pIC50 of TFPI inhibition of FVIIa/TF [6]: 7.4
- TFPI fold resistance (fold vs wild-type FVIIa) [7]: < 0.3
- IC50 of TFPI inhibition of FVIIa/TF [8]: 53 nM
- TFPI fold resistance (fold vs wild-type FVIIa) [8]: 0.7
- pIC50 of TFPI inhibition of FVIIa/TF [8]: 7.3
- TFPI fold resistance (fold vs wild-type FVIIa) [9]: < 0.3
- IC50 of TFPI inhibition of FVIIa/TF [10]: 20 nM
- TFPI fold resistance (fold vs wild-type FVIIa) [10]: 0.3
- pIC50 of TFPI inhibition of FVIIa/TF [10]: 7.7
- TFPI fold resistance (fold vs wild-type FVIIa) [11]: < 0.3
- TFPI fold resistance (fold vs wild-type FVIIa) [12]: 14.1
- TFPI fold resistance (fold vs wild-type FVIIa) [13]: 0.6
- IC50 of TFPI inhibition of FVIIa/TF [14]: 43 nM
- TFPI fold resistance (fold vs wild-type FVIIa) [14]: 0.6
- pIC50 of TFPI inhibition of FVIIa/TF [14]: 7.4
- IC50 of TFPI inhibition of FVIIa/TF [15]: 440 nM
- TFPI fold resistance (fold vs wild-type FVIIa) [15]: 6.1
- pIC50 of TFPI inhibition of FVIIa/TF [15]: 6.4
- IC50 of TFPI inhibition of FVIIa/TF [16]: 1100 nM
- TFPI fold resistance (fold vs wild-type FVIIa) [16]: 16
- pIC50 of TFPI inhibition of FVIIa/TF [16]: 5.9
- IC50 of TFPI inhibition of FVIIa/TF [17]: 200 nM
- TFPI fold resistance (fold vs wild-type FVIIa) [17]: 2.8
- pIC50 of TFPI inhibition of FVIIa/TF [17]: 6.7
- IC50 of TFPI inhibition of FVIIa/TF [18]: 41 nM
- TFPI fold resistance (fold vs wild-type FVIIa) [18]: 0.8
- pIC50 of TFPI inhibition of FVIIa/TF [18]: 7.4
- TFPI fold resistance (fold vs wild-type FVIIa) [19]: 3.2
- TFPI fold resistance (fold vs wild-type FVIIa) [20]: 1.7
- IC50 of TFPI inhibition of FVIIa/TF [21]: 35 nM
- TFPI fold resistance (fold vs wild-type FVIIa) [21]: 0.5
- pIC50 of TFPI inhibition of FVIIa/TF [21]: 7.5
- IC50 of TFPI inhibition of FVIIa/TF [22]: 13 nM
- TFPI fold resistance (fold vs wild-type FVIIa) [22]: < 0.3
- pIC50 of TFPI inhibition of FVIIa/TF [22]: 7.9
- IC50 of TFPI inhibition of FVIIa/TF [23]: 110 nM
- TFPI fold resistance (fold vs wild-type FVIIa) [23]: 1.5
- pIC50 of TFPI inhibition of FVIIa/TF [23]: 7
- TFPI fold resistance (fold vs wild-type FVIIa) [24]: 80.7
- TFPI fold resistance (fold vs wild-type FVIIa) [25]: < 0.3
- TFPI fold resistance (fold vs wild-type FVIIa) [26]: 12.2
- TFPI fold resistance (fold vs wild-type FVIIa) [27]: < 0.3
- TFPI fold resistance (fold vs wild-type FVIIa) [28]: 10.7
- IC50 of TFPI inhibition of FVIIa/TF [29]: 32 nM
- TFPI fold resistance (fold vs wild-type FVIIa) [29]: 0.4
- pIC50 of TFPI inhibition of FVIIa/TF [29]: 7.5
Substance: Human Recombinant TFPI (R&D Systems) (from UniProt P10646 29-282)
